Assay results as given in paper PMC9328131.
Where two headings read alike, the source gives them in different places.

T1: Ecm16 (Streptomyces lasalocidi, UniProt Q0X0A9 1-792)
T1 sequence: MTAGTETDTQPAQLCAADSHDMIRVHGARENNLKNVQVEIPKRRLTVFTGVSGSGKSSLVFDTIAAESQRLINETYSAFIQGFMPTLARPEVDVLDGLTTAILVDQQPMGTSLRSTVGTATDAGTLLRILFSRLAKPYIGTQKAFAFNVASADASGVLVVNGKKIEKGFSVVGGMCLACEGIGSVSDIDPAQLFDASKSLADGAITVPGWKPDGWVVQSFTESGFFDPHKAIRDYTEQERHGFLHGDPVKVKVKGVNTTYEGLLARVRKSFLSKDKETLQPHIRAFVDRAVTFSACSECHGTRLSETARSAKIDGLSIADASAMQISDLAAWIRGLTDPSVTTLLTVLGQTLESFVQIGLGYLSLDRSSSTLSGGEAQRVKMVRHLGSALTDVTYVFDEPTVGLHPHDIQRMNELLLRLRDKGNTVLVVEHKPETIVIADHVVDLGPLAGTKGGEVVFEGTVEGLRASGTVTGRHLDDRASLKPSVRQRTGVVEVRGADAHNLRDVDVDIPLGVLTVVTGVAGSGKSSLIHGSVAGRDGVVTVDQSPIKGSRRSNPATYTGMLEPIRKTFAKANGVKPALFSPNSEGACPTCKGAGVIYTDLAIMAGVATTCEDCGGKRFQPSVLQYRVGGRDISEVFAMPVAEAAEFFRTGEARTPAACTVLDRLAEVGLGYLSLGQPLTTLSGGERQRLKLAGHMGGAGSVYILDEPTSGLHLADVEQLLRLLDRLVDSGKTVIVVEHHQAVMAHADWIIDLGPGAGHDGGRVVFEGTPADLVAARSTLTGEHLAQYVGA


Assays:
Test in all cases: EMSA
Ecm16 [1] = molecular target: T1, Ecm16
Ecm16 [2] = molecular target: T1, Ecm16; remark: listed apart in the source
Ecm16 [3] = molecular target: T1, Ecm16; remark: listed apart in the source

Binder | Kd (Ecm16 [1]) | Kd (Ecm16 [2]) | Kd (Ecm16 [3])
32-mer dsDNA (dsDNA) DNA 1: AGTGATCAGTGGTTACGTAACCACTGATCACT DNA 2: AGTGATCAGTGGTTACGTAACCACTGATCACT | 20.6 nM | 34.8 nM | 
AGTGATCAGTGGTTACGTAACCACTGATCACT (ssDNA) [32-mer ssDNA] |  |  | 39.6 nM
